Our source for the Kd and koff values is PMC5628404 (2017).

Read-outs that look alike come from different tables or passages of the source.

Holding throughout (experiment): SPR
On the technique in general: In SPR one partner is held on a chip, and binding of the other changes the refractive index at the surface.

In experiment [1] the target is T1, K27-linked di-ubiquitin (K27-Ub2) (human, UniProt P0CG48 1-76, isopeptide linkage between the C-terminal glycine of one ubiquitin and K27 of the other).
The target in experiment [2] is T2, M1-linked di-ubiquitin chain (M1-Ub2) (human, UniProt P0CG48 1-76; P0CG48 1-76).
Experiment [3] addresses T3, K63-linked di-ubiquitin (K63-Ub2) (human, UniProt P0CG48 1-76, isopeptide linkage between the C-terminal glycine of one ubiquitin and K63 of the other).
Experiment [4] addresses T1, K27-linked di-ubiquitin (K27-Ub2). This is another data set of the same source.
Experiment [5] concerns the target T2, M1-linked di-ubiquitin chain (M1-Ub2). The source holds these as a separate data set.
In experiment [6] the target is T3, K63-linked di-ubiquitin (K63-Ub2). This is another data set of the same source.
Experiment [7] deals with T2, M1-linked di-ubiquitin chain (M1-Ub2). This is another data set of the same source.
The target of experiment [8] is M1-linked tetra-ubiquitin chain (M1-Ub4) (human, UniProt P0CG48 1-76; P0CG48 1-76; P0CG48 1-76; P0CG48 1-76).
The target in experiment [9] is M1-linked tri-ubiquitin chain (M1-Ub3) (human, UniProt P0CG48 1-76; P0CG48 1-76; P0CG48 1-76).
Experiment [10] has as its target T1, K27-linked di-ubiquitin (K27-Ub2). The source holds these as a separate data set.

B1: BRAP (1–592) (full-length) (natural protein)
chain: MSVSLVVIRLELAEHSPVPAGFGFSAAAGEMSDEEIKKTTLASAVACLEGKSPGEKVAIIHQHLGRREMTDVIIETMKSNPDELKTTVEERKSSEASPTAQRSKDHSKECINAAPDSPSKQLPDQISFFSGNPSVEIVHGIMHLYKTNKMTSLKEDVRRSAMLCILTVPAAMTSHDLMKFVAPFNEVIEQMKIIRDSTPNQYMVLIKFRAQADADSFYMTCNGRQFNSIEDDVCQLVYVERAEVLKSEDGASLPVMDLTELPKCTVCLERMDESVNGILTTLCNHSFHSQCLQRWDDTTCPVCRYCQTPEPVEENKCFECGVQENLWICLICGHIGCGRYVSRHAYKHFEETQHTYAMQLTNHRVWDYAGDNYVHRLVASKTDGKIVQYECEGDTCQEEKIDALQLEYSYLLTSQLESQRIYWENKIVRIEKDTAEEINNMKTKFKETIEKCDNLEHKLNDLLKEKQSVERKCTQLNTKVAKLTNELKEEQEMNKCLRANQVLLQNKLKEEERVLKETCDQKDLQITEIQEQLRDVMFYLETQQKINHLPAETRQEIQEGQINIAMASASSPASSGGSGKLPSRKGRSKRGK
For orientation: Kd means the equilibrium constant for the complex coming apart. For orientation: koff means the rate constant with which the complex falls apart. Read a high koff as a short-lived complex. For B1, the Kd in [1] amounted to 6.27 nM; in experiment [2], 5.19 nM; in [3], 11.3 nM. The koff turned out to be 0.00302 s⁻¹ in [4], 0.00264 s⁻¹ in experiment [5] and 0.00395 s⁻¹ in experiment [6].

B2: BRAP (124–569) (RNF52 domain) (domain or fragment)
chain: DQISFFSGNPSVEIVHGIMHLYKTNKMTSLKEDVRRSAMLCILTVPAAMTSHDLMKFVAPFNEVIEQMKIIRDSTPNQYMVLIKFRAQADADSFYMTCNGRQFNSIEDDVCQLVYVERAEVLKSEDGASLPVMDLTELPKCTVCLERMDESVNGILTTLCNHSFHSQCLQRWDDTTCPVCRYCQTPEPVEENKCFECGVQENLWICLICGHIGCGRYVSRHAYKHFEETQHTYAMQLTNHRVWDYAGDNYVHRLVASKTDGKIVQYECEGDTCQEEKIDALQLEYSYLLTSQLESQRIYWENKIVRIEKDTAEEINNMKTKFKETIEKCDNLEHKLNDLLKEKQSVERKCTQLNTKVAKLTNELKEEQEMNKCLRANQVLLQNKLKEEERVLKETCDQKDLQITEIQEQLRDVMFYLETQQKINHLPAETRQEIQEGQINIAMASA
In the case of B2, the Kd was found to be 60.8 nM in experiment [7], 22 nM in [8], 48.5 nM in [9] and 171 nM in experiment [10].
